Data set [1] can be described thus: FIG. 1 enzyme assay using OPD (L-amino acid oxidase activity). It is filed as biochemical. As to conditions: for substrate preference of LAAO activity: L-amino acid substrates; for pH optimum of L-amino acid oxidase (LAAO) activity: pH value at which activity is maximal. The procedure:
3,3′,5,5′-tetramethylbenzidine (TMB) or o-phenylenediamine (OPD) is used as a chromogenic substrate in the FIG. 1 assay. TMB is advantageous because it is not mutagenic and therefore not likely to be carcinogenic, whereas OPD and o-dianisidine are mutagenic.
To perform these measurements, we developed a FIG. 1 enzyme assay using OPD as a substrate.
For the FIG. 1 enzyme assay using OPD, 10 μl of sample is added to a 190 μl assay mixture resulting in a 200 μl reaction with final concentration of 5 to 50 mM L-phenylalanine (Sigma, St. Louis, Mo.), 10 U/ml peroxidase (Sigma), 0.5 mg/ml OPD (Sigma), and 52.5 mM sodium acetate (pH 4). The reaction is incubated for 2 hours at 37° C., after which the reaction is stopped by the addition of 11 μl 36N sulfuric acid (H2SO4). The quantity of H2O2 generated is determined by measuring absorbance at 490 nm. FIG. 1 enzyme activity in Units is determined by comparison with a standard curve generated using known concentrations of H2O2. The amount of H2O2 (μM) corresponding to the observed absorbance at 490 nm is the amount of L-phenylalanine oxidized, since one H2O2 molecule is produced per L-amino acid oxidized. Therefore, FIG. 1 enzyme units can be calculated as follows:
Units (μmol/min)=(μM)/min×V
One unit oxidizes one micromole of L-phenylalanine per minute at 37° C. and pH 4.

For data set [2], the system named is murine B cell line (M.12.4.1). Kind of data set: Transfection of murine B cell line with vectors expressing mouse FIG. 1; cell toxicity. The format is cell-based. As to conditions: clones expressing FIG. 1 in the insoluble cell fraction; no stable transfectants obtained. An excerpt:
A murine B cell line (M.12.4.1) and fibroblast line (NIH3T3) is transfected with vectors expressing mouse FIG. 1. Specifically, a 1985 bp BamHI fragment containing the full length mouse FIG. 1 cDNA is inserted into the BamHI site of the pREP9 vector (InVitrogen, Carlsbad, Calif.), resulting in pMN10-9, a plasmid that expresses FIG. 1 mRNA from the vector's RSV 3′ LTR promoter. A 1930 bp PvuII/EcoRI fragment containing the full length mouse FIG. 1 cDNA is inserted into the Ecl126II/EcoRI sites of pIRES2-EGFP (Clontech), resulting in plasmid mFIG. 1-iGFP (also known as pAFFP), a plasmid that expresses FIG. 1 mRNA from the vector's CMV promoter.
NIH 3T3 cells are transfected with plasmid DNA using the calcium phosphate method. In particular, a Calcium Phosphate Mammalian Cell Transfection Kit (5 Prime→3 Prime, Inc., Boulder, Colo.) or Calcium Phosphate Transfection System (Life Technologies, Inc., Rockville, Md.) is used. A 40 μg plasmid DNA/calcium phosphate precipitate is prepared according to manufacturer's protocol and used to transfect 2×10^6 cells. M12.4. 1 cells are transfected by electorporation or with an Effectene Transfection Reagent (Qiagen, Inc., Valencia, Calif.). […]
During the selection of M.12.1 bulk transfectants, LAAO activity is detected after 15 days, peaking at 17 days, declining after 20 days to undetectable using procedures described above. […]

Setting [3] is: listed as interleukin four induced protein.

B1: FIG. 1: mouse immediate early interleukin-four induced protein with L-amino acid oxidase activity (SEQ ID NO:1), expressed in transfected cells (protein, listed as Mus sp.)
chain: MAGLALRLVLAATLLGLAGSLDWKAASSLNPIEKCMEDHDYEQLLKVVTLGLNRTSKPQKVVVVGAGVAGLVAAKMLSDAGHKVTILEADNRIGGRIFTFRDEKTGWIGELGAMRMPSSHRILHKLCRTLGLNLTQFTQYDENTWTEVHNVKLRNYVVEKMPEKLGYNLNNRERGHSPEDIYQMALNKAFKDLKALGCKKAMNKFNKHTLLEYLLEEGNLSRPAVQLLGDVMSEEGFFYLSFAEALRAHACLSDRLRYSRIVGGWDLLPRALLSSLSGALLLNAPVVSITQGRNDVRVHIATSLHSEKTLTADVVLLTASGPALQRITFSPPLTRKRQEALRALHYVAASKVFLSFRRPFWHEEHIEGGHSNTDRPSRLIFYPARGEGSLLLASYTWSDAAAPFAGLSTDQTLRLVLQDVAALHGPVVFRLWDGRGVVKRWAEDPHSQGGFVVQPPLYGREAEDYDWSAPFGRIYFAGEHTALPHGWVETAVKSGLRAAVRINNNYGYGEVDPQMMEHAYAEANYLDQYPEGERPEEQQAREEVSPDEQEPSHKHLLVETSPEGQQHAFVEAIPELQGHVFVETVPQEKGHAHQNIYPSEHVQVHGEVIPEWHGHGGSGTPQMHRVGDHS
Turning to B1, the “substrate preference of LAAO activity” value is “prefers aromatic amino acids as a substrate, with phenylalanine (Phe) being the optimal substrate” in data set [1]; “prefers aromatic L-amino acids for substrates, particularly L-phenylalanine” in data set [1] (listed as FIG. 1 protein); “lesser specificity for other aromatic amino acids such as tyrosine and tryptophan” in data set [1] (setting [3]). The “LAAO activity at pH values other than the optimum” value in data set [1] (compared with pH 4.0) was “lower activity at pH 5, 8 and 9”. Moreover, the “pH optimum of L-amino acid oxidase (LAAO) activity” value amounted to 4 in data set [1], 4 in data set [1] (listed as FIG. 1 protein) and 4.0 in data set [1] (setting [3]). The “cell death in FIG. 1 transfectants” value in data set [2] is reported as “significant cell death”.

(Values after patent US20030045688A1, “Human interleukin-four induced protein” (priority 2000, published 2003).)
